What was measured:
[1] = target: T1, mature TGFα (R&D Systems, 239-A) (human, UniProt P01135 40-89); assay: ELISA on immobilized TGFα (R&D Systems, 239-A)
[2] = target: T1, mature TGFα (R&D Systems, 239-A); assay: ELISA on immobilized mature TGFα (R&D Systems, 239-A)
[3] = target: T1, mature TGFα (R&D Systems, 239-A); assay: ELISA on immobilized mature TGFα, COS-7 supernatant

B1: EP19 monoclonal antibody (mouse hybridoma anti-EREG antibody) (antibody, V domains shown)
VH: EVQLQQSGPELEKPGASVKISCKASGYSFTGYNMNWVKQSNGKSLEWIGNIDPYYGAASYNQKFKGKATLTVDKSSSTAYMQLKSLTSEDSAVYYCARSQLPYWYFDVWGAGTTVTVSS
VL: DIVMTQSPSSLTVTAGEKVTMSCKSSQSLLNSGNQKNYLTWYQQKPGQPPKLLIYWASTRESGVPDRFTGSGSGTDFTLTISSVQAEDLAVYYCQNDYSYPYTFGGGTKLEIK
notes: Hybridoma antibody from WO 2008/047723; The variable region entries may include leader residues; also called EP19 antibody
B1: binds [1].

B2: mouse hybridoma anti-TGFα antibody #2-20 (antibody, V domains shown)
VH: DVQLQESGPGLVKPSQSLSLTCTVTGYSITSDYAWNWIRLFPGNKLEWMGFINYSGNTSYNPSLKSRISITRDTSKNQFFLKLNSLTTDDTATYYCARGGLSRFPYWGQGTLVTVSA
VL: DIQMTQTTSSLSASLGDRVTISCRSSQDIRNYLNWYQQKPDGTVKLLIYYTSRSHSGVPSRFSGSGSGTDYSLTISNLEQEDIATYFCQQGNMFPFTFGGGTKLEIK
notes: Mouse IgG purified from hybridoma supernatant; also called #2-20 antibody; mouse #2-20 antibody
B2: binds [2].

B3: #2-20 mouse chimeric IgG2a recombinant antibody (#2-20 VH/VL with mouse IgG2a constant region) (antibody)
heavy: DVQLQESGPGLVKPSQSLSLTCTVTGYSITSDYAWNWIRLFPGNKLEWMGFINYSGNTSYNPSLKSRISITRDTSKNQFFLKLNSLTTDDTATYYCARGGLSRFPYWGQGTLVTVSAAKTTAPSVYPLAPVCGGTTGSSVTLGCLVKGYFPEPVTLTWNSGSLSSGVHTFPALLQSGLYTLSSSVTVTSNTWPSQTITCNVAHPASSTKVDKKIEPRVPITQNPCPPLKECPPCAAPDLLGGPSVFIFPPKIKDVLMISLSPMVTCVVVDVSEDDPDVQISWFVNNVEVHTAQTQTHREDYNSTLRVVSALPIQHQDWMSGKEFKCKVNNRALPSPIEKTISKPRGPVRAPQVYVLPPPAEEMTKKEFSLTCMITGFLPAEIAVDWTSNGRTEQNYKNTATVLDSDGSYFMYSKLRVQKSTWERGSLFACSVVHEGLHNHLTTKTISRSLGK
light: DIQMTQTTSSLSASLGDRVTISCRSSQDIRNYLNWYQQKPDGTVKLLIYYTSRSHSGVPSRFSGSGSGTDYSLTISNLEQEDIATYFCQQGNMFPFTFGGGTKLEIKRADAAPTVSIFPPSSEQLTSGGASVVCFLNNFYPKDINVKWKIDGSERQNGVLNSWTDQDSKDSTYSMSSTLTLTKDEYERHNSYTCEATHKTSTSPIVKSFNRNEC
notes: Transiently expressed in COS-7 and tested as culture supernatant; also called recombinant mouse chimeric IgG2a antibody; mouse IgG2a antibody
B3: binds [3].

B4: #2-20 recombinant human chimeric antibody (#2-20 VH/VL with human IgG1 constant region) (antibody)
heavy: not shown
light: DIQMTQTTSSLSASLGDRVTISCRSSQDIRNYLNWYQQKPDGTVKLLIYYTSRSHSGVPSRFSGSGSGTDYSLTISNLEQEDIATYFCQQGNMFPFTFGGGTKLEIKRTVAAPSVFIFPPSDEQLKSGTASVVCLLNNFYPREAKVQWKVDNALQSGNSQESVTEQDSKDSTYSLSSTLTLSKADYEKHKVYACEVTHQGLSSPVTKSFNRGEC
notes: Transiently expressed in COS-7 and tested as culture supernatant
B4: binds [3].
